Assays:
[1] = test system: dopamine neurons; test: Survival of TH-positive dopamine neurons in dissociated midbrain floor cultures; type: cell-based, mouse; details: for survived neurons as % compared to neurons grown in the presence of GDNF: Table 3A (FIG. 15); for survived neurons as % compared to neurons grown in the presence of GDNF / protection of dopaminergic neurons in culture (result in words): 5 days; for Fold change of survived neurons compared to neurons grown without growth factors: data of Table 3 divided by values of no factor; for protection of dopaminergic neurons in culture (result in words): added to the culture medium, TH-positive neurons counted
Method in brief: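 Dissociated E13.5 NMRI mouse midbrain floor neurons grown five days in DMEM/F12 with N2, with polypeptides at a range of concentrations, GDNF (100 ng/ml), or nothing. TH-immunopositive neurons were counted by imaging. Values are a percentage of GDNF-maintained TH-positive neurons, as mean ± SEM from at least three independent cultures.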

[2] = test system: rat model of cerebral ischemia; test: Distal occlusion of the middle cerebral artery as a model of cerebral stroke; type: in vivo
Description: Male Sprague Dawley rats (weight 230-270 g, Envigo, Netherlands) were used for the experiments which were conducted according to the 3R principles of EU directive 2010/63/EU on the care and use of experimental animals, local laws and regulations, and were approved by the national Animal Experiment Board of Finland All experiments were performed in a blinded manner and the rats were assigned to different treatment groups randomly. Rats were anesthesized with chloral hydrate (0.4 g/kg, i.p). A cortical stroke was induced by occluding the distal middle cerebral artery (dMCA) together with a bilateral common carotid artery (CCA) occlusion for 60 min as described previously (Chen, et al., 1986). Briefly, the bilateral CCAs were identified and isolated through a ventral midline cervical incision. Rats were placed in stereotaxic apparatus and a craniotomy was made in the right hemisphere. The right (MCA) was ligated with a 10-0 suture and bilateral common carotids (CCA) were ligated with non-traumatic arterial clamps for 60 minutes. […]
To test the neuroprotective effect of subcutaneous C-CDNF, 50 μg of C-CDNF was given 30-50 min before dMCA occlusion and immediately after reperfusion in volume of 100 μl s.c. Phosphate-buffered saline (PBS) was used as vehicle control. […] The area of infarction in each slice was measured with a digital scanner and ImageJ software. […]

B1: KYEKTLDLASVDLRKMRVAELKQILHSWGEECRACAEKTDYVNLIQELAPKYAATHPKTEL (peptide, listed as Homo sapiens)
chain: KYEKTLDLASVDLRKMRVAELKQILHSWGEECRACAEKTDYVNLIQELAPKYAATHPKTEL
survived neurons as % compared to neurons grown in the presence of GDNF ([1]; AVG, 1 ng/ml): 63.97 % GDNF
survived neurons as % compared to neurons grown in the presence of GDNF ([1]; AVG, 10 ng/ml): 80.69 % GDNF
survived neurons as % compared to neurons grown in the presence of GDNF ([1]; AVG, 100 ng/ml): 77.02 % GDNF
survived neurons as % compared to neurons grown in the presence of GDNF ([1]; AVG, 1000 ng/ml): 70.02 % GDNF
survived neurons as % compared to neurons grown in the presence of GDNF ([1]; exp1, 1 ng/ml): 62.96 % GDNF
survived neurons as % compared to neurons grown in the presence of GDNF ([1]; exp1, 10 ng/ml): 81.68 % GDNF
survived neurons as % compared to neurons grown in the presence of GDNF ([1]; exp1, 100 ng/ml): 91.48 % GDNF
survived neurons as % compared to neurons grown in the presence of GDNF ([1]; exp1, 1000 ng/ml): 75.02 % GDNF
survived neurons as % compared to neurons grown in the presence of GDNF ([1]; exp2, 1 ng/ml): 67.36 % GDNF
survived neurons as % compared to neurons grown in the presence of GDNF ([1]; exp2, 10 ng/ml): 80.97 % GDNF
survived neurons as % compared to neurons grown in the presence of GDNF ([1]; exp2, 100 ng/ml): 65.28 % GDNF
survived neurons as % compared to neurons grown in the presence of GDNF ([1]; exp2, 1000 ng/ml): 61.07 % GDNF
survived neurons as % compared to neurons grown in the presence of GDNF ([1]; exp3, 1 ng/ml): 61.59 % GDNF
survived neurons as % compared to neurons grown in the presence of GDNF ([1]; exp3, 10 ng/ml): 79.42 % GDNF
survived neurons as % compared to neurons grown in the presence of GDNF ([1]; exp3, 100 ng/ml): 74.30 % GDNF
survived neurons as % compared to neurons grown in the presence of GDNF ([1]; exp3, 1000 ng/ml): 73.98 % GDNF
Fold change of survived neurons compared to neurons grown without growth factors ([1]; Table 4, AVG, 1 ng/ml): 1.04 fold
Fold change of survived neurons compared to neurons grown without growth factors ([1]; Table 4, AVG, 10 ng/ml): 1.31 fold
Fold change of survived neurons compared to neurons grown without growth factors ([1]; Table 4, AVG, 100 ng/ml): 1.26 fold
Fold change of survived neurons compared to neurons grown without growth factors ([1]; Table 4, AVG, 1000 ng/ml): 1.14 fold
Fold change of survived neurons compared to neurons grown without growth factors ([1]; Table 4, exp1, 1 ng/ml): 1.10 fold
Fold change of survived neurons compared to neurons grown without growth factors ([1]; Table 4, exp1, 10 ng/ml): 1.43 fold
Fold change of survived neurons compared to neurons grown without growth factors ([1]; Table 4, exp1, 100 ng/ml): 1.60 fold
Fold change of survived neurons compared to neurons grown without growth factors ([1]; Table 4, exp1, 1000 ng/ml): 1.31 fold
Fold change of survived neurons compared to neurons grown without growth factors ([1]; Table 4, exp2, 1 ng/ml): 1.07 fold
Fold change of survived neurons compared to neurons grown without growth factors ([1]; Table 4, exp2, 10 ng/ml): 1.28 fold
Fold change of survived neurons compared to neurons grown without growth factors ([1]; Table 4, exp2, 100 ng/ml): 1.04 fold
Fold change of survived neurons compared to neurons grown without growth factors ([1]; Table 4, exp2, 1000 ng/ml): 0.97 fold
Fold change of survived neurons compared to neurons grown without growth factors ([1]; Table 4, exp3, 1 ng/ml): 0.95 fold
Fold change of survived neurons compared to neurons grown without growth factors ([1]; Table 4, exp3, 10 ng/ml): 1.23 fold
Fold change of survived neurons compared to neurons grown without growth factors ([1]; Table 4, exp3, 100 ng/ml): 1.15 fold
Fold change of survived neurons compared to neurons grown without growth factors ([1]; Table 4, exp3, 1000 ng/ml): 1.14 fold
protection of dopaminergic neurons in culture (result in words) [1]: protects
protection of dopaminergic neurons in culture (result in words) ([1]; listed as C-terminal CDNF fragment): potently protected
infarction volume (rostral part of the cerebral cortex) ([2]; 50 μg s.c. 30-50 minutes before dMCA occlusion and right after reperfusion, p<0.05 vs PBS): decreases
smaller lesions than the vehicle treated rats ([2]; 50 μg s.c. before dMCA occlusion and right after reperfusion, n=8-9): about 50%

From US12479895B2, “C-terminal CDNF and MANF fragments, pharmaceutical compositions comprising same and uses thereof” (MyNeuroCure Oy, priority 2018, dated 2025)
